Publication PMC5399442, “Fatty acid synthase cooperates with protrudin to facilitate membrane outgrowth of cellular protrusions” (Scientific Reports, 2017)

Legend:
[1] = target: the molecule itself; assay: SDS-resistant dimer on SDS-PAGE with immunoblot; HEK293T cells expressing WT-protrudin exposed to UV light (365 nm) as control; SDS-PAGE and immunoblot with anti-Myc antibody
[2] = target: the molecule itself; assay: cross-linking; photo-crosslinking by DiZPK in living HEK293T cells, 48 h after transfection, UV 365 nm for 10 min; SDS-PAGE and immunoblot with anti-Myc antibody

Row | Protein | stoichiometry N [1] | stoichiometry N [2]
1 | wild-type protrudin with a C-terminal myc tag (natural protein, human, UniProt Q5T4F4-2 1-404, looked up, protrudin (ZFYVE27), human, from cDNA; also called WT-protrudin; protrudin-myc; source: HEK293T, transfected (pcDNA3.1-protrudin-myc), in lysate; not shown: c-Myc, C-terminal, kept) MQTSEREGSGPELSPSVMPEAPLESPPFPTKSPAFDLFNLVLSYKRLEIYLEPLKDAGDGVRYLLRWQMPLCSLLTCLGLNVLFLTLNEGAWYSVGALMISVPALLGYLQEVCRARLPDSELMRRKYHSVRQEDLQRGRLSRPEAVAEVKSFLIQLEAFLSRLCCTCEAAYRVLHWENPVVSSQFYGALLGTVCMLYLLPLCWVLTLLNSTLFLGNVEFFRVVSEYRASLQQRMNPKQEEHAFESPPPPDVGGKDGLMDSTPALTPTEDLTPGSVEEAEEAEPDEEFKDAIEEDDEGAPCPAEDELALQDNGFLSKNEVLRSKVSRLTERLRKRYPTNNFGNCTGCSATFSVLKKRRSCSNCGNSFCSRCCSFKVPKSSMGATAPEAQRETVFVCASCNQTLSK | 2 | –
2 | protrudin with DiZPK incorporated at site D134, C-terminal myc tag (natural protein, human, UniProt Q5T4F4-2 1-404, looked up, DiZPK (3-(3-methyl-3H-diazirin-3-yl)-propamino-carbonyl-Nε-L-lysine) at position 134, protrudin (ZFYVE27), human; codon of D134 changed to the amber codon (TAG) and read as DiZPK, a lysine derivative; The new residue is written as K because DiZPK is an Nε-modified lysine; source: HEK293T, transfected with the MbPylRS/MbtRNACUA pair, cultured with DiZPK, in lysate; not shown: c-Myc, C-terminal, kept) MQTSEREGSGPELSPSVMPEAPLESPPFPTKSPAFDLFNLVLSYKRLEIYLEPLKDAGDGVRYLLRWQMPLCSLLTCLGLNVLFLTLNEGAWYSVGALMISVPALLGYLQEVCRARLPDSELMRRKYHSVRQEKLQRGRLSRPEAVAEVKSFLIQLEAFLSRLCCTCEAAYRVLHWENPVVSSQFYGALLGTVCMLYLLPLCWVLTLLNSTLFLGNVEFFRVVSEYRASLQQRMNPKQEEHAFESPPPPDVGGKDGLMDSTPALTPTEDLTPGSVEEAEEAEPDEEFKDAIEEDDEGAPCPAEDELALQDNGFLSKNEVLRSKVSRLTERLRKRYPTNNFGNCTGCSATFSVLKKRRSCSNCGNSFCSRCCSFKVPKSSMGATAPEAQRETVFVCASCNQTLSK | – | 2
